Patent US12692524B2, “Sialyltransferases and their use in producing sialylated oligosaccharides” (Chr. Hansen A/S, priority 2017, dated 2026)

How the values were obtained:
[1] = In vitro sialylation of LNT by protein extracts, LST-a/-b quantified by LC-MS/MS; assay type: biochemical; details: for Relative efficacy of sialyltransferases regarding in-vitro production of sialyllacto-N-tetraoses: LST-a / Relative efficacy of sialyltransferases regarding in-vitro production of sialyllacto-N-tetraoses: LST-b: 5 mM LNT, 10 mM CMP-Neu5Ac, 16 hours, LC-MS/MS, relative quantity, n.d.: not detectable
Experimental: Escherichia coli BL21(DE3) harbouring plamids encoding for 100 sialyltransferases were grown at 30° C. in 100 ml shake flasks filled with 20 ml of 2YT medium supplemented with ampicillin 100 μg ml^−1. When the cultures reached an OD600 of 0.1 to 0.3, gene expression was induced by addition of 0.3 mM IPTG and the incubation was continued for 12 to 16 hours. Cells were harvested by centrifugation and mechanically disrupted in a defined volume of 50 mM Tris-HCl pH7.5 using glass beads. The protein extract was kept on ice until the assay started. The in vitro assay was carried out in a total volume of 25 μl including 50 mM Tris-HCl pH7.5, 5 mM MgCl2, 10 mM CMP-Neu5Ac and 5 mM LNT. The assay started with the addition of 3 μl protein extract and continued for 16 hours. Product formation was determined by mass spectrometry.
Mass spectrometry analysis was performed by MRM (multiple reaction monitoring) using a LC Triple-Quadrupole MS detection system. Precursor ions are selected and analyzed in quadrupole 1, fragmentation takes place in the collision cell using argon as CID gas, selection of fragment ions is performed in quadrupole 3. Chromatographic separation of lactose, 3′-Sialyllactose and 6′-Sialyllactose after dilution of culture supernatant 1:100 with H2O (LC/MS Grade), was performed on a XBridge Amide HPLC column (3.5 μm, 2.1×50 mm (Waters, USA) with a XBridge Amide guard cartridge (3.5 μm, 2.1×10 mm) (Waters, USA). Column oven temperature of the HPLC system was 50° C. The mobile phase was composed of acetonitrile:H2O with 10 mM ammonium acetate. A 1 μl sample was injected into the instrument; the run was performed for 3.60 min with a flow rate of 400 μl/min. 3′-Sialyllactose and 6′-Sialyllactose were analyzed by MRM in ESI positive ionization mode. The mass spectrometer was operated at unit resolution. Sialyllactose forms an ion of m/z 656.2 [M+Na]. The precursor ion of Sialyllactose was further fragmented in the collision cell into the fragment ions m/z 612.15, m/z 365.15 and m/z 314.15. Collision energy, Q1 and Q3 Pre Bias were optimized for each analyte individually. Chromatographic separation of lactose, LNT-II, LNT and LST-a or -b after dilution of particle-free biocatalysis-reaction or crude extract, respectively, 1:50 with H2O (LC/MS Grade), was performed on a XBridge Amide HPLC column (3.5 μm, 2.1×50 mm (Waters, USA) with a XBridge Amide guard cartridge (3.5 μm, 2.1×10 mm) (Waters, USA). Column oven was run at 35° C. The mobile phase was composed of acetonitrile:H2O with 0.1% ammonium hydroxide. A 1 μl sample was injected into the instrument; the run was performed for 3.50 min with a flow rate of 300 μl/min. Lactose, LNT-II, LNT as well as LST-a and -b were analyzed by MRM in ESI negative ionization mode. The mass spectrometer was operated at unit resolution. Lactose forms an ion of m/z 341.00 [M−H]. The precursor ion of Lactose was further fragmented in the collision cell into the fragment ions m/z 179.15, m/z 161.15 and m/z 101.05. LNT-II forms an ion of m/z 544.20 [M−H]. The precursor ion of LNT-II was further fragmented into the fragment ions m/z 382.10, m/z 161.00 and m/z 112.90. LNT forms an ion of m/z 706.20 [M−H]. The precursor ion of LNT was further fragmented into the fragment ions m/z 382.10, m/z 202.10 and m/z 142.00. LST-a and -b forms an ion of m/z 997.20 [M−H]. The precursor ion of LST-a and-b was further fragmented into the fragment ions m/z 290.15, m/z 202.15 and m/z 142.15. Collision energy, Q1 and Q3 Pre Bias were optimized for each analyte individually. Quantification methods were established using commercially available standards (Carbosynth, Compton, UK).
Twenty eight genes were identified to produce LST-a whereas only 6 enzymes synthesized LST-b. […] Irrespectively of the protein overexpression level, sialyltransferases that produced best were selected for determination of Km and Vmax.

[2] = In vivo screening in E. coli #1363/#1730 with lactose as acceptor, sialyllactose identified by TLC; assay type: cell-based, Escherichia coli BL21(DE3); details: for Described activity confirmed in the lactose screening: in words
Experimental: Escherichia coli BL21(DE3) #1363 and #1730 harbouring plasmids encoding for 100 sialyltransferases were grown at 30° C. in 100 ml shake flasks filled with 20 ml of mineral salts medium (Samain et al., J. Biotech. 1999, 72:33-47) supplemented with 2% (wt/vol) glucose, ampicillin 100 μg ml^−1, kanamycin 15 μg ml^−1 and zeocin 40 μg ml^−1. When the cultures reached an OD600 of 0.1 to 0.3, gene expression was induced by addition of 0.3 mM IPTG. After an incubation for one hour, 1.5 mM lactose was added to #1363 cultures whereas 1.5 mM lactose as well as 1.5 mM sialic acid was added to #1730 cultures. The incubation continued for 72 to 96 hours. Then, cells were harvested by centrifugation and mechanically disrupted in a defined volume using glass beads. Subsequently, samples were applied to thin layer chromatography (TLC) on Silica Gel 60 F254 (Merck KGaA, Darmstadt, Germany). A mixture of butanol:acetone:acetic acid:H2O (35/35/7/23 (v/v/v/v)) was used as mobile phase. For detection of the separated substances, the TLC plate was soaked with thymol reagent (0.5 g thymol solved in 95 ml ethanol, 5 ml sulfuric acid added) and heated.
In the entire screening, thirty two genes were identified to encode for α-2,3-sialyltransferases, thus producing 3′-SL. 19 enzymes synthesized 6′-SL and were depicted as α-2,6-sialyltransferases. An α-2,3- as well as an α-2,6-sialyltransferase activity could only be observed for 3 enzymes. […] The screening appeared highly accurate since the described activities of extensively characterized sialyltransferases, e. g. […] Regarding the product formation, the experimental setting allowed a semi-quantitative comparison of the screened enzymes. But to achieve deeper knowledge about their kinetic properties, the 3 potentially best performing α-2,3- and α-2,6-sialyltransferases were applied to in vitro assays.

Row | Molecule | Relative efficacy of sialyltransferases regarding in-vitro production of sialyllacto-N-tetraoses: LST-a [1] | Relative efficacy of sialyltransferases regarding in-vitro production of sialyllacto-N-tetraoses: LST-b [1] | Described activity confirmed in the lactose screening [2] | further results
1 | SiaT7: sialyltransferase of Pasteurella dagmatis strain DSM 22969, acc. AFY98851, SEQ ID NO: 7 (protein, listed as Pasteurella dagmatis) MTIYLDPASLPTLNQLMHFTKESEDKETARIFGFSRFKLPEKITEQYNNIHFVEIKNNRPTEDIFTILDQYPEKLELDLHLNIAHSIQLFHPILQYRFKHPDRISIKSLNLYDDGTMEYVDLEKEENKDIKSAIKKAEKQLSDYLLTGKINFDNPTLARYVWQSQYPVKYHFLSTEYFEKAEFLQPLKTYLAGKYQKMDWSAYEKLSPEQQTFYLKLVGFSDETKQLFHTEQTKFIFTGTTTWEGNTDIREYYAKQQLNLLKHFTHSEGDLFIGDQYKIYFKGHPRGGDINDYILKHAKDITNIPANISFEILMMTGLLPDKVGGVASSLYFSLPKEKISHIIFTSNKKIKNKEDALNDPYVRVMLRLGMIDKSQIIFWDSLKQL | 2.25 × 10^3 | – | – | –
2 | SiaT4: sialyltransferase of Helicobacter acinonychis, acc. NC_008229, SEQ ID NO: 11 (protein, listed as Heliobacter acinonychis) MNKKPLIIAGNGPSIKDLDYALFPKDFDVFRCNQFYFEDKYYLGREIKGVFFNAHVFDLQMKITKAIVKNGEYHPDHIYCTHVEPYGYVNGNQQLMQEYLEKHFVGVRSTYAYLKDLEPFFILHSKYRNFYDQHFTTGIMMLLVAIQLGYKEIYLCGIDFYENGFGHFYENQGGFFEEDSDPMHDKNIDIQALELAKKYAKIYALVPNSALVKMIPLSSQKGVLEKVKDRIGLGEFKREKFGQKELERQKELERQKELERQKELERQKELERQKELERQKELERQKELERQKELERQKELERQKELERQKELERQKELERQKELERQKELERQKELELERSLKARLKAVLASKGIRGDNLIIVSLKDTYRLFKGGFALLLDLKALKSIIKAFLKR | 654 | – | – | –
3 | SiaT5: sialyltransferase of Helicobacter acinonychis, acc. NC_008229, SEQ ID NO: 33 (protein, listed as Heliobacter acinonychis) MGTIKKPLIIAGNGPSIKDLDYALFPKDFDVFRCNQFYFEDKYYLGREIKGVFFNPCVLSSQMQTVQYLMDNGEYSIERFFCSVSTDRHDFDGDYQTILPVDGYLKAHYPFVCDTFSLFKGHEEILKHVKYHLKTYSKELSAGVLMLLSAVVLGYKEIYLVGIDFGASSWGHFYDESQSQHFSNHMADCHNIYYDMLTICLCQKYAKLYALAPNSPLSHLLTLNPQAKYPFELLDKPIGYTSDLIISSPLEEKLLEFKNIEEKLLEFKNIEEKLLEFKNIEEKLLEFKNIEEKLLEFKNIEEKLLEFKNIEEKLLEFKNIEEKLLEFKNIEEKLLEFKNIEEKLLEFKNIEEKLLEFKNIEEKLLEFKNIEEKLLEFKNIEEKLLASRLNNILRKIKRKILPFFWGGGVTPTLKVSFRWGAA | – | 1 | – | –
4 | SiaT3: sialyltransferase of Campylobacter jejuni strain OH4384, acc. AX934425, SEQ ID NO: 12 (protein, listed as Campylobacter jejuni) MGKKVIIAGNGPSLKEIDYSRLPNDFDVFRCNQFYFEDKYYLGKKCKAVFYNPILFFEQYYTLKHLIQNQEYETELIMCSNYNQAHLENENFVKTFYDYFPDAHLGYDFFKQLKDFNAYFKFHEIYFNQRITSGVYMCAVAIALGYKEIYLSGIDFYQNGSSYAFDTKQKNLLKLAPNFKNDNSHYIGHSKNTDIKALEFLEKTYKIKLYCLCPNSLLANFIELAPNLNSNFIIQEKNNYTKDILIPSSEAYGKFSKNIN | 605 | – | – | –
5 | SiaT1: sialyltransferase of Neisseria meningitidis, acc. U60660, SEQ ID NO: 5 (protein, listed as Neisseria meningitidis) MGLKKACLTVLCLIVFCFGIFYTFDRVNQGERNAVSLLKEKLFNEEGEPVNLIFCYTILQMKVAERIMAQHPGERFYVVLMSENRNEKYDYYFNQIKDKAERAYFFHLPYGLNKSFNFIPTMAELKVKSMLLPKVKRIYLASLEKVSIAAFLSTYPDAEIKTFDDGTGNLIQSSSYLGDEFSVNGTIKRNFARMMIGDWSIAKTRNASDEHYTIFKGLKNIMDDGRRKMTYLPLFDASELKTGDETGGTVRILLGSPDKEMKEISEKAAKNFKIQYVAPHPRQTYGLSGVTTLNSPYVIEDYILREIKKNPHTRYEIYTFFSGAALTMKDFPNVHVYALKPASLPEDYWLKPVYALFTQSGIPILTFDDKN | 2.98 × 10^3 | – | could be confirmed | Described activity to sialylate LNT verified ([1]; in words): could be verified; Production of sialyllactose in-vivo ([2]; 1.5 mM lactose, 72 to 96 hours, qualitative via TLC): 3′-SL
6 | SiaT11: sialyltransferase of Photobacterium damselae JT0160, acc. BAA25316, SEQ ID NO: 31 (protein, listed as Photobacterium damsela) MKKILTVLSIFILSACNSDNTSLKETVSSNSADVVETETYQLTPIDAPSSFLSHSWEQTCGTPILNESDKQAISFDFVAPELKQDEKYCFTFKGITGDHRYITNTTLTVVAPTLEVYIDHASLPSLQQLIHIIQAKDEYPSNQRFVSWKRVTVDADNANKLNIHTYPLKGNNTSPEMVAAIDEYAQSKNRLNIEFYTNTAHVFNNLPPIIQPLYNNEKVKISHISLYDDGSSEYVSLYQWKDTPNKIETLEGEVSLLANYLAGTSPDAPKGMGNRYNWHKLYDTDYYFLREDYLDVEANLHDLRDYLGSSAKQMPWDEFAKLSDSQQTLFLDIVGFDKEQLQQQYSQSPLPNFIFTGTTTWAGGETKEYYAQQQVNVINNAINETSPYYLGKDYDLFFKGHPAGGVINDIILGSFPDMINIPAKISFEVLMMTDMLPDTVAGIASSLYFTIPADKVNFIVFTSSDTITDREEALKSPLVQVMLTLGIVKEKDVLFWADHKVNSMEVAIDEACTRIIAKRQPTASDLRLVIAIIKTITDLERIGDVAESIAKVALESFSNKQYNLLVSLESLGQHTVRMLHEVLDAFARMDVKAAIEVYQEDDRIDQEYESIVRQLMAHMMEDPSSIPNVMKVMWAARSIERVGDRCQNICEYIIYFVKGKDVRHTKPDDFGTMLD | – | 13 | could be confirmed | –
